In PMC3665706 (Immunity, 2013):

Target: the molecule itself
Experiment: SEC-MALS

B1: N-terminal A20 protein bearing the OTU domain (residues 1-370), wild type (domain or fragment, UniProt P21580 1-370, looked up)
chain: MAEQVLPQALYLSNMRKAVKIRERTPEDIFKPTNGIIHHFKTMHRYTLEMFRTCQFCPQFREIIHKALIDRNIQATLESQKKLNWCREVRKLVALKTNGDGNCLMHATSQYMWGVQDTDLVLRKALFSTLKETDTRNFKFRWQLESLKSQEFVETGLCYDTRNWNDEWDNLIKMASTDTPMARSGLQYNSLEEIHIFVLCNILRRPIIVISDKMLRSLESGSNFAPLKVGGIYLPLHWPAQECYRYPIVLGYDSHHFVPLVTLKDSGPEIRAVPLVNRDRGRFEDLKVHFLTDPENEMKEKLLKEYLMVIEIPVQGWDHGTTHLINAAKLDEANLPKEINLVDDYFELVQHEYKKWQENSEQGRREGHAQ
stoichiometry N: 2
